Results: paper PMC7201283, “Crystal structure of the NS3-like helicase from Alongshan virus” (IUCrJ, 2020)

System: O=c1ccn([C@@H]2O[C@H](COP(=O)(O)OP(=O)(O)OP(=O)(O)O)[C@@H](O)[C@H]2O)c(=O)[nH]1
Assay: purified protein
Conditions: 20 mM Tris-HCl pH 8.0, 5 mM DTT, 10 mM MgCl2, 28°C, 16 nM enzyme, no RNA

Substance: ALSV NS3-Hel (Alongshan virus)
- Km: 185 ± 19 µM
- kcat: 0.85 ± 0.02 s⁻¹
